# Data as given in the DeepSol protein solubility set.
# Assay: soluble on expression in E. coli; label from the status in PepcDB or PDB records
row,Sequence,soluble on expression in E. coli
1,MELVKTIQIGDDIYPPIPDLFGIQENQEFNLYKSTDGTLVLSPSDSKLSADHQSISSDEQMTTAVEQARLDEIATSVLSRHLDAFKELTE,not soluble
2,MSLKKFQHEFWTATSGDLTQRRTPLATPDYQSTSAAAVKIIIDPADRHQPWLGGGAAITDSAAYLLWSVMSAEQRRALLTELFDPDQGGFSSVRVPLGSCDFQSQDFYTYDDVPYGEHDQKLEQFSIGTGQPGAPDATKDLKHIVPVLQEILAINPAVKVIASPWSAPAWMKNTGHLTHGGHLRFGEFTGNGYTEENRFEYIYAQYFIRYIEAYQKLGIPIYGLTIQNEPSNAAHWPAMIWTVPQLADFGYRYLRPALNHSFPDTKLYLLDDSFHALTKPITAEVTPEQAAAFDGLAVHTYSGPYDNLYHANRAYPNWSTIMTERRCMMTDTPEEAAHIMFGIIGNWLVHNGLSMITLWNLALDERGLPNAADSTGREGVVTIDHTTGKVQRNLEYFMLRNFGQDVSVGATVIGSTNYTRDGYTGGLGSVAFLGTAGDIAAHLYNPTAQPIQAAVTINGNGANWQLVTVPPYGTVTLHKSDAPLNTTNVPVDDEFPLNPTPANHSDVAPGQHEGHHHHHH,not soluble
3,SMSYESPFHLNDAVAIVTGAAAGIGRAIAGTFAKAGASVVVTDLKSEGAEAVAAAIRQAGGKAIGLECNVTDEQHREAVIKAALDQFGKITVLVNNAGGGGPKPFDMPMSDFEWAFKLNLFSLFRLSQLAAPHMQKAGGGAILNISSMAGENTNVRMASYGSSKAAVNHLTRNIAFDVGPMGIRVNAIAPGAIKTDALATVLTPEIERAMLKHTPLGRLGEAQDIANAALFLCSPAAAWISGQVLTVSGGGVQELD,soluble
4,MGSDKIHHHHHHMSSHQLPFQRSDEEVQASSGDSLTIARKQEVVQLLKQISDRTLKNDIISLGMVRNLRIVDDYIYLRLYIGSHQHQLETEIQTVLSSLTWSKKTYIQLCTIPGVRTTLAVSSGKGGVGKSTTAVNLAAALQLAGAKVGLLDADVYGPNVPQMLGLGKSEVKVIDTPKGQRFVPLEAHGIKVMSVGLLAEADHPLAWRGPVLHKIITQFIHEVEWGELDYLLIDLPPGTGDAQITIVQESPICGVILVTTPQNVAISDVRRSVYMFRQVGVPVIEIIENMSYFIGNGGEKISIFGSGGGQKLVEELKAPLLGQIPIDPLICNGGDVGEPLMLVDPNSKASQVFVQIAGALNATFSGSM,not soluble
5,MADSLDRLYQAVLAARDLDPATSRTARLFQRGSGKMAKKLAEEAIEVVIDAVNGNREAVIRESADLLYNLTVLWASAGVRPEDVWAEMRRRENLLGIAEKLPKSRIGKPAAPHATRRPVIPQEARAVRKHR,not soluble
6,MSLETYIHEVVAPKLVGRDPLEIDRISKDLTGYLGFRSTGAEMRGNSAVDIGLWDLFGKATNLPIAQLLGGFSRREIRTYNTCAGNTYMRDAKGQQTANYGIGGPRRDYDDLNGFLERADELAEDLLSEGITAMKIWPFDIAAEKSGGQYISGPDLRKALEPFEKIRKRVGDRIDIMVEFHSMWQLTPAIQIARALEPYATFWHEDPIKMDSLSSLKRYAAASRAPLCASETLATRWAFRDLMETDAAGVVMLDLSWCGGISEAKKISTMAEAWHLPVAPHDCTGPVVLAASTHLSLNAPNALVQESVRAYYKTWYADLTTQLPTVTNGMITIPPGAGHGVDLAPDLDRKFEVSRRSSQIEDEGHHHHHH,not soluble
7,GMSQATAKVNREVQAFLQDLKGKTIDHVFFVACGGSSAIMYPSKYVFDRESKSINSDLYSANEFIQRNPVQLGEKSLVILCSHSGNTPETVKAAAFARGKGALTIAMTFKPESPLAQEAQYVAQYDWGDEALAINTNYGVLYQIVFGTLQVLENNTKFEQAIEGLDQLQAVYEKALKQEADNAKQFAKAHEKESIIYTMASGANYGVAYSYSICILMEMQWIHSHAIHAGEYFHGPFEIIDESVPFIILLGLDETRPLEERALTFSKKYGKKLTVLDAASYDFTAIDDSVKGYLAPLVLNRVLRSYADELAEERNHPLSHRRYMWKVEY,soluble
8,MFNNNDFKDYRKLLGFGSQNAFKEFLGAKDIQPCVDFNDLNALKKRLIEIFSAINSIYCFKYNEYELECFFKNSIERVFSKIVDTHIIYKLNNQGRRPEEVCFSWMRGFLVAEFFKDFIACLFSAQKETIKFFGGDNFENIESFKRSPKADFLLDNHLLLEVQSDFQGINDIKEHKVLEAKRRLITDKVPTIVVHFDLFNGQVACVEISKIKDNDLNWITRQQMEGQSVFNISQNFFDYKITEIPNKPLS,not soluble
9,STSPEIASLSWGQMKVKGSNTTYKDCKVWPGGSRTWDWRETGTEHSPGVQPADVKEVVEKGVQTLVIGRGMSEALKVPSSTVEYLKKHGIDVRVLQTEQAVKEYNALVAQGVRVGGVFHSTC,soluble
10,MDPVEAGDWIAGRPLQLVFLSGLNPVNKPAHNSIVNVFRNRTADKPPLHIRVVSGELDIPPKRETGSGKGILRREWPQKYLDKVPALIVVFIDLEWDHPSWEEKKTEAESKVASIRGSLRHGTKIALVLIQQKSTSISDNLAADRAHELCQACSLSSKQLFILPADNLLAPNTTNLQNFALKLELAFHELCQAFYQQRLKTIRSRNIPNNSPALVVRQQFKLAFLSELRQDTHTALRNYRLAYDQCRDTVEQWDGVDVFEWRSVVGLLNYKVQQGLLKTKNSVISTRGMCELCFLHSTALEAINQMRRHTTVFFSSSPGIYPTPHLASIELLLWKSKQCYQFAHLFERSVAGGLSALATLNPGTHLDQAASIYSAANTEIAALKRNAPQNVPYPSPDPLANSSSTVFFGQRPWRINHEGLATAEVEAAAVTAIIQRLVVNHEGVISLLSAALAQYQKYGCLRMKKKVMMEMANTCYANNEIQRALRFWGLVVKDNALPYSIRKDMMHRATWAAYAITSIQDYAVCCMQLMCPAYSEVLPSDCVKGLLDVLDGKPPGSPFPNDDISQEQLHTYQLQWQHVLQEHPAFVVQASKIAELFLETRVSFLDQQTVEQDSKVAVRVEIVSKIEQVIRLNDVSVHLKAKKFPPDANQTANDADCLIYDPIHLGSVEVSKSKPLQRVVLLDLKNAKQNWIVTVTKVTLDLGNAIRGNIEFDENALNRNCHVENIIGLEFLKIGVAKTSVKLESVEKVDCLIGEVTSTELTIRNTCKSSPIHGLQLDFKRKEQKHAEAAAVLFVEQDGTELKSEFSKSVCEQLGAGEMAKIPVMFSAQLVGDYVLQLELSYKISEDGILVTKSTMLEVGVTAKEPFTVTSTVMNMNGIPMTSILNNCDHILNASIQSAASIVISSVEFLMADVVTLCDTINGGSGKNLNDKVHSEEVICYSAVIRVLVKEDESETPLGRMSVEWRRAVPNSCPVRSVAPLCRIPVLACPISISSHIKTNPAIVRQPIEICFELKSHSKEAVEISTNFDLNDVFMFSGERKVTMTVLPGATRRVTVVVMALSAGRLNFPKISLKSPQISDQTLQQSLRTLPAAIFVLPKAKDLAPHP,not soluble
11,MGHHHHHHSHVFKIEDKIGEGTFSSVYLATAQLQVGPEEKIALKHLIPTSHPIRIAAELQCLTVAGGQDNVMGVKYCFRKNDHVVIAMPYLEHESFLDILNSLSFQEVREYMLNLFKALKRIHQFGIVHRDVKPSNFLYNRRLKKYALVDFGLAQGTHDTKIELLKFVQSEAQQERCSQNKSHIITGNKIPLSGPVPKELDQQSTTKASVKRPYTNAQIQIKQGKDGKEGSVGLSVQRSVFGERNFNIHSSISHESPAVKLMKQSKTVDVLSRKLATKKKAISTKVMNSAVMRKTASSCPASLTCDCYATDKVCSICLSRRQQVAPRAGTPGFRAPEVLTKCPNQTTAIDMWSAGVIFLSLLSGRYPFYKASDDLTALAQIMTIRGSRETIQAAKTFGKSILCSKEVPAQDLRKLCERLRGMDSSTPKLTSDIQGHASHQPAISEKTDHKASC,soluble
12,MGSDKIHHHHHHMKTDFTIREAQQTDTIALKELFQNTVLAVNSKDYSQAEVEDWASCGDDLSNIEEMIKTHYFIVAVNQQSQIVGFSSITSQGYLHSMFVHKDFQGKGIATMLLEEIERYAITAGIMRITSEVSLTARPFFEKKGYIVKEEQKRKANQLSLTNFWMAREMAKIKPYNGRIPACGVFCGGCPIYTREKRACRGAELNHSRCEKCKTFHLCCFGKKITHCFQCSNFPCTRFKGFAKRWQKHGQDFIENQKLLSEIGEVAFLEYYNKKVTD,not soluble
13,MAHHHHHHMSVVTTLSGVFEADLEATLMGYIHEAIGNAVNKGLQYARSTAQDRVLKMLIAYRRVCTSNATSSLLMPSRLRLIPLFVLSFMKADALVEGTTVPIDDRVQKLFLLMTIPMHQCVTYLYPTLYAVHHLLSEPTSGVIDPETGHCVLPGWQQLIFDSITTDGVYVLCDEQARIVYLWIGSSVVPEVSLELFGTTNALDVGRTVFFENFGERLKNVLYTCLMRDDGMRRFVILHEKDRGEEAFFRQFKEENEGGSMGYDQLLVHLHREVKKSIE,not soluble
14,MKSFALVRADDSDKVKIALHDLERYGHIQFSATPKCIEPNYADELLVSVMGVSLKSKCNSAALVELNNHAGAAISRLKKIHPPAHIIIISPRHKMFEELAGKFPKYPEFDRTFNHQKSPQGLDMIQEKGESSNA,not soluble
15,MSLRFDFHTHTVFSDGELIPAELVRRARVLKHRAIAITDHADFSNYKELIEKTTIAKEELKKYWDDIIVIVGVELTHIPPKSIPKMAKKAKDLGAEIVVVHGETVVEPVEEKTNYYASISEDVDILAHPGFIDKETAENLKENDIFVEITSRRGHNITNGYVANIAREFGLKTLINTDTHAPEDLIDDEFAKKVGLGAGLTNKELENTLLHYPKELLKREGHHHHHH,soluble
16,VKTILFFILIFNSQYMSKRIGVAVVGLGSIGKTHVKALKDLEKETEFVKLVAVVDQIKAIAEKIGSEYGTPYYTTIDEVLRNSEVDVISIATPSYLHAPQAILAIEYGKHVIVEKPMATTLAGAREMVSRAERNEVKLGVIFQERYAPDIRRLKNDILKELGRIYLIESELKWYRDMKGYYKRDEIARSWRGMWNTEGGGVMTNQGIHTIDLMIWLNGEVEEVSGFVDNLTHDGIEVEDTAVAIMRYKNGALGTISQTVSMKPTTYQYRKIRVNGSNGFVEITDGSLSTVAIEGKIEESKSSVEYKKETIAQPGNLHKELLRDFLRALSEDNDFPINGKEGMKSLEVIKAVYLSSVNRQVVKLPLDVRIVV,soluble
17,PTILVVGDLMIDHYIWGECERISPEAPVQVIDVKRETKTLGGACNVMSNLIALEASVLSCGVVGEDLAGRELLGFLQELGMESKGIITQKGRPTTQKSRIIASNQQVVRVDWENKSPISEESEEAMIAYIRSKLSLCDAVILSDYGKGVLTPRVCQTIIQMAKTLQKRVLVDPKGRDYSKYRGASLLTPNKKEAKEATGIEINDEASLKKALECLKKECELEFSVITLSEDGIGIFDQALERIPTIAQEVYDVTGAGDTVIASLAYGLSLGYPLRECALFANAAAAVVVGKIGSATATHGEIAEYLHS,not soluble
18,MKIAGLKQLNTALKEAASGGFSRQASRWLEECGQDFLEIVQSELISTQTIDTEKLLSSFEKGAEDNLWIVQSGGLSLEVGTQLDYASFLNDGHWTSKQDVRWVPGRFQGSRFIYDPAASTGMALKRKWIPGTGYWDHALLLYEQLFEKSLESKLRQWLKKLLEHHHHHH,soluble
19,MSLEYQWGFANISMNYLDWTRSTTHKSGDSSHKDDFAYIELEGGAGYSWGEMYGFFDLENPFNSKTAQPGDNQRYTFKTTGRYYLGDSGFNLYGHIYGTYSLPSAEGNDYSNFHEVNTLYGIGYNATVAGVWMKPFVALHYVDQTYYSGNNGYVVGWVAGYDFTAFDENFSITNWNELEFNRAERYAAGNGGRNGVNGALALWWTPIKQFTTGIQYRYAYNKLGEDFLQDGIVYSIKYNFEGHHHHHH,not soluble
20,GMPRPKLKSDDEVLEAATVVLKRCGPIEFTLSGVAKEVGLSRAALIQRFTNRDTLLVRMMERGVEQVRHYLNAIPIGAGPQGLWEFLQVLVRSMNTRNDFSVNYLISWYELQVPELRTLAIQRNRAVVEGIRKRLPPGAPAAAELLLHSVIAGATMQWAVDPDGELADHVLAQIAAILCLMFPEHDDFQLLQAHA,soluble
